In patent US20250382373A1, “ANTI-EGFR/MET ANTIBODIES AND USES THEREOF” (Biocytogen Pharmaceuticals (Beijing) Co., Ltd., priority 2022, published 2025):
Where two headings read alike, the source gives them in different places.

Columns and labels:
[1] = target: monkey MET on fasMET-NIH3T3 cells (monkey (Macaca fascicularis)); experiment: flow cytometry on fasMET-NIH3T3 cells (evaluated as No binding)
[2] = target: monkey EGFR on CHO-S-fasEGFR cells (monkey (crab-eating macaque; Macaca fascicularis)) (UniProt P55245); experiment: flow cytometry on CHO-S-fasEGFR cells (evaluated as No binding)
[3] = target: human MET on SNU-5 cells (human) (UniProt P08581); experiment: flow cytometry on SNU-5 cells (evaluated as No binding)
[4] = target: human EGFR on CHO-S-hEGFR cells (human) (UniProt P00533); experiment: flow cytometry on CHO-S-hEGFR cells (evaluated as No binding)
[5] = target: monkey MET on fasMET-NIH3T3 cells (monkey (Macaca fascicularis)); experiment: flow cytometry on fasMET-NIH3T3 cells (evaluated as No binding); remark: listed apart in the source
[6] = target: monkey EGFR on CHO-S-fasEGFR cells (monkey (crab-eating macaque; Macaca fascicularis)) (UniProt P55245); experiment: flow cytometry on CHO-S-fasEGFR cells (evaluated as No binding); remark: listed apart in the source
[7] = target: human MET on hMET-NIH3T3 cells (human) (UniProt P08581); experiment: flow cytometry on hMET-NIH3T3 cells (evaluated as No binding)
[8] = target: dog MET on dMET-NIH3T3 cells (dog (Canis lupus, printed 'Cans lupus')) (UniProt Q75ZY9); experiment: flow cytometry on dMET-NIH3T3 cells (evaluated as No binding)
[9] = target: His-tagged monkey MET (monkey); experiment: SPR (Biacore 8K), Protein A chip

Chain of monkey MET on fasMET-NIH3T3 cells (monkey (Macaca fascicularis)) (chain, as listed by the source limits assumed): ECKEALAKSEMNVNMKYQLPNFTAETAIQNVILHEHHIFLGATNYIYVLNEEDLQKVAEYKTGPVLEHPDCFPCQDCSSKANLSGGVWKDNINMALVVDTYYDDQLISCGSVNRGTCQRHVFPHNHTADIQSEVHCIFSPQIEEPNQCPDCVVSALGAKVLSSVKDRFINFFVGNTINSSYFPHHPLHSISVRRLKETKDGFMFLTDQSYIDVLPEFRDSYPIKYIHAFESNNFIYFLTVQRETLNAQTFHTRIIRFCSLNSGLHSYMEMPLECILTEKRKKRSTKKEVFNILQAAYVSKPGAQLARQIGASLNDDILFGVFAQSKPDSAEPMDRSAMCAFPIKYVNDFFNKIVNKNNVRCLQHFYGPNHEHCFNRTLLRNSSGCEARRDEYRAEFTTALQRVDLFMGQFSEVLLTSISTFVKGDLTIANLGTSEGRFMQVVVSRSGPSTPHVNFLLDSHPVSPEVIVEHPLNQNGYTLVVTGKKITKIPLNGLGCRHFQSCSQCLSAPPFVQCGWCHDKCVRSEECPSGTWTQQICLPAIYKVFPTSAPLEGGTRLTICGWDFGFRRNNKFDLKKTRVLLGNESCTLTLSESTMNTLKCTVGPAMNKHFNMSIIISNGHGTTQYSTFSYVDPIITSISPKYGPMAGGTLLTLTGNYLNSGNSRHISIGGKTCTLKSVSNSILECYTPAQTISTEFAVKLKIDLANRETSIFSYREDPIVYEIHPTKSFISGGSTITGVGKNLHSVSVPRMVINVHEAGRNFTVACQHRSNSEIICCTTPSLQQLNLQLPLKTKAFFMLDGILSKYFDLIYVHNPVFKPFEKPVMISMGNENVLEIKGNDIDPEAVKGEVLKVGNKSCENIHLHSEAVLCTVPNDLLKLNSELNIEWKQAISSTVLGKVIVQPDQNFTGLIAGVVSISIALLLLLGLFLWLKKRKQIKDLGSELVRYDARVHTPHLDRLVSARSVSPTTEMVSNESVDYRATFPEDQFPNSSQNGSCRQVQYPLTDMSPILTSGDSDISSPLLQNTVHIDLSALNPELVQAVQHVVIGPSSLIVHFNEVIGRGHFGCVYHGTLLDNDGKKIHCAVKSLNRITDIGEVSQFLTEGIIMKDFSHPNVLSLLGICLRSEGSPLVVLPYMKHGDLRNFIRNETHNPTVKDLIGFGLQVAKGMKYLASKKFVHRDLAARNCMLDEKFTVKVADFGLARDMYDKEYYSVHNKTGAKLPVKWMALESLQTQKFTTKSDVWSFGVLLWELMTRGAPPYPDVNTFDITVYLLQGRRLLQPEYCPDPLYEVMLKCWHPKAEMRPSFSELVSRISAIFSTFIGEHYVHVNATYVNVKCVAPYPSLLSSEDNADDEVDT
Chain of human MET on SNU-5 cells (human) (P08581 25-1390): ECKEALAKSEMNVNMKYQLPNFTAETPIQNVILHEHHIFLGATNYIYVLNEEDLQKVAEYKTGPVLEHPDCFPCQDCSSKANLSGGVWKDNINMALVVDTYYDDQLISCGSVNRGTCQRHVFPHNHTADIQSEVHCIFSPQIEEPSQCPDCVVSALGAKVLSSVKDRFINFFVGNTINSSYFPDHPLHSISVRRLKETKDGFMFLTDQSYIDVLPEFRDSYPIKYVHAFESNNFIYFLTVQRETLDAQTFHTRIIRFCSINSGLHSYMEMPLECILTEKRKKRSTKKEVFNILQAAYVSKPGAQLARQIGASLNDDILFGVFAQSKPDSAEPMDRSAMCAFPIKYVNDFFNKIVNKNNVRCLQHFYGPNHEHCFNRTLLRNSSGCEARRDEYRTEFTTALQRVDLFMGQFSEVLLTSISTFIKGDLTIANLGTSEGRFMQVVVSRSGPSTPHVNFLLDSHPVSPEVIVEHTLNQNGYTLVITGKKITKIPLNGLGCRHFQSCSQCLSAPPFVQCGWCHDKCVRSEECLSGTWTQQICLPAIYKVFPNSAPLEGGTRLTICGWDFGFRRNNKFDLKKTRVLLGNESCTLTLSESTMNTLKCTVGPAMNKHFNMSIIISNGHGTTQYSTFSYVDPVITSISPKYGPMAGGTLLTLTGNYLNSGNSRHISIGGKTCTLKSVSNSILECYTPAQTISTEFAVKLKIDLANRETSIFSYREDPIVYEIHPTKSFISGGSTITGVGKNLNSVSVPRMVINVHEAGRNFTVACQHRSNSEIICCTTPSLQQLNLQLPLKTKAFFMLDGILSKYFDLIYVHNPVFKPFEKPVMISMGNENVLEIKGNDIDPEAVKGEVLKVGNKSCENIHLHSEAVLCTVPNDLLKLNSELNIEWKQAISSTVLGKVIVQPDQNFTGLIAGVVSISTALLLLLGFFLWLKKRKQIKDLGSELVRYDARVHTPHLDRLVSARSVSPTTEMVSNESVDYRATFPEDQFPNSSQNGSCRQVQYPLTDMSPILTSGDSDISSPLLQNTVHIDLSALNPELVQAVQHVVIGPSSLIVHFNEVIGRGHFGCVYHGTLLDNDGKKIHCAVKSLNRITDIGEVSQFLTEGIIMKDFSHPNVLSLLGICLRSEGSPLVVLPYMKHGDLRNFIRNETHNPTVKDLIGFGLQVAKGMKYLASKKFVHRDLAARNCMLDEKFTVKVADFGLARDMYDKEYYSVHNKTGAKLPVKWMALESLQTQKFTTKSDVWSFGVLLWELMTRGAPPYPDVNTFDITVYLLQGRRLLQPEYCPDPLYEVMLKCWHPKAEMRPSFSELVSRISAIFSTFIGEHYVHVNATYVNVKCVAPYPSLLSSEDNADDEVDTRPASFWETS
Chain of human MET on hMET-NIH3T3 cells (human) (P08581 25-1390 limits assumed): as the sequence (P08581 25-1390) above

Percentage of Positive Cells [1] [%] | Percentage of Positive Cells [2] [%] | Percentage of Positive Cells [3] [%] | Percentage of Positive Cells [4] [%] | Percentage of Positive Cells [5] [%] | Percentage of Positive Cells [6] [%] | Percentage of Positive Cells [7] [%] | Percentage of Positive Cells [8] [%] | Kd [9] [nM] | koff [9] [s⁻¹] | kon [9] [M⁻¹ s⁻¹] | Substance
0.8 | 0.2 | 2.5 | 0 | 1.29 | 0.65 | 1.01 | 0.29 |  |  |  | NC
 |  |  |  |  |  |  |  | 1.5 | 9.41e-05 | 62600 | Telisotuzumab analog (antibody)
